According to PMC7835385:

Experiments:
[1] = target: myosin-7a heavy chain (Drosophila), FLAG-tagged, co-expressed with light chains (Drosophila) (UniProt Q9V3Z6); experiment: co-purification (FLAG affinity chromatography) with SDS-PAGE densitometry; heavy chain and light chains co-expressed in Sf9; heavy chain captured by its FLAG tag; 150 mM NaCl, 2 mM ATP washes
[2] = target: skeletal muscle actin, filamentous (F-actin) (rabbit) (UniProt P68135)
[3] = target: full-length myosin-7a holoenzyme (Drosophila), FLAG-tagged (Drosophila) (UniProt Q9V3Z6); experiment: single-molecule mass photometry; 20 nM myosin-7a or M7BP alone, or 20 nM M7BP with 10 nM myosin-7a; 150 mM NaCl, 2 mM MgCl2, 0.1 mM EGTA, 10 mM MOPS, pH 7.2; about 24 C; no actin
[4] = target: GFP-myosin-7a holoenzyme (full-length, Drosophila) (Drosophila) (UniProt Q9V3Z6); experiment: BLI; Octet RED96; GFP-myosin-7a held by biotinylated GFP antibody on streptavidin sensors; 0-25 nM M7BP in solution; 150 mM NaCl, 2 mM MgCl2, 0.1 mM EGTA, 10 mM MOPS, 1% BSA, pH 7.2; 30 C; no actin
[5] = target: GFP-myosin-7a holoenzyme (full-length, Drosophila) (Drosophila) (UniProt Q9V3Z6); experiment: single-molecule TIRF motility assay; 20 nM myosin-7a with 20 nM M7BP on surface-immobilised phalloidin-labelled actin filaments; 150 mM KCl, 20 mM MOPS, 5 mM MgCl2, 0.1 mM EGTA, 2 mM ATP, pH 7.4; co-movement and fluorophore counting of moving puncta

Drosophila calmodulin (from UniProt P62152 1-149) (natural protein)
stoichiometric ratio of strongly bound calmodulin to ELC/Mlc-c on the heavy chain [1]: 4

M7BP (myosin-7a binding protein), protein isoform C of CG43340, full length (natural protein)
decrease in actin gliding velocity over surface-bound myosin-7a after infusion of 500 nM M7BP, 150 mM KCl [2]: 50% | stoichiometry N [3]: 1 | Kd [4]: 6 nM

M7BP-mCherry (natural protein)
stoichiometry N [5]: 1
